Consider 13 molecules from patent publication US20250277020A1 (Boehringer Ingelheim, published 2025).

The labels stand for the following.
T1: Full-length human CTGF (human, UniProt P29279 27-349)
T1 construct: Corresponds to NCBI NP_001892.1 with the signal peptide omitted; purchased from R&D Systems; also called hCTGF full length; full length CTGF
T1 sequence: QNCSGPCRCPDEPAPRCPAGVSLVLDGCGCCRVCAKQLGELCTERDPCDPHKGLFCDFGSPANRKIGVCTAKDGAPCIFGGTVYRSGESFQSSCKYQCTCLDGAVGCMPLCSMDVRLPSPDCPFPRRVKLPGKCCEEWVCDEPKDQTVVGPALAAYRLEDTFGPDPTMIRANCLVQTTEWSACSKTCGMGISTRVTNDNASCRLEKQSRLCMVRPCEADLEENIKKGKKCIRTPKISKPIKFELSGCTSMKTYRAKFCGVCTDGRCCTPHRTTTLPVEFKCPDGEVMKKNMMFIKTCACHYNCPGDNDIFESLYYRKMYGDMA

B1: A21 (antibody, human IgG1, kappa, L234A L235A)
light: VVMTQTPLSLSVSLGDQASISCKSSQSIVHYNGKTYLEWYLQKPGQSPQLLIYKVSSRFSGVPDRFSGSGSGTDFTLKISRVEAEDLGVYYCFQGSHFPLTFGQGTKLEIKRTVAAPSVFIFPPSDEQLKSGTASVVCLLNNFYPREAKVQWKVDNALQSGNSQESVTEQDSKDSTYSLSSTLTLSKADYEKHKVYACEVTHQGLSSPVTKSFNRGEC
heavy: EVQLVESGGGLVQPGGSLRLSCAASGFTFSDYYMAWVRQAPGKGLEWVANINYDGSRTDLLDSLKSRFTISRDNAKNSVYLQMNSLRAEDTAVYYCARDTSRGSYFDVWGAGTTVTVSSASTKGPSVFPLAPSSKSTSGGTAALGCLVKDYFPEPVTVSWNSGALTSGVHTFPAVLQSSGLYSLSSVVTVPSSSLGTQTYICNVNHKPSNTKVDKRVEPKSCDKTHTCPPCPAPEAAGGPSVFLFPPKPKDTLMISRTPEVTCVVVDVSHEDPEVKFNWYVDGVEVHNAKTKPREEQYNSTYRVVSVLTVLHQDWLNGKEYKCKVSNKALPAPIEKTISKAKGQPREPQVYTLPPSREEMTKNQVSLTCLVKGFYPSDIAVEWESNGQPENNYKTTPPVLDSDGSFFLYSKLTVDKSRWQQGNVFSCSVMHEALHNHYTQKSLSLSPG
B2: A25 (antibody, human IgG1, kappa, L234A L235A, V domains shown)
VH: EVQLVESGGGLVQPGGSLRLSCAASGFTFSDYYMAWVRQAPGKGLEWVANINYEGSRTDLLESLKSRFTISRDNAKNSVYLQMNSLRAEDTAVYYCARDTSRGSYFDVWGAGTTVTVSS
VL: VVMTQTPLSLSVSLGDQASISCKSSQSIVHYNGKTYLEWYLQKPGQSPQLLIYKVSSRASGVPDRFSGSGSGTDFTLKISRVEAEDLGVYYCFQGSHFPLTFGQGTKLEIKR
B3: A36 (antibody, human IgG1, kappa, L234A L235A, V domains shown)
VH: B2 VH with E54Y, E62A
VL: B2 VL with G33E, K34N, A59F
B4: A41 (antibody, human IgG1, kappa, L234A L235A, V domains shown)
VH: B2 VH
VL: B2 VL with G33E, K34N
B5: A23 (antibody, human IgG1, kappa, L234A L235A, V domains shown)
VH: B2 VH with E54D
VL: B2 VL with A59F
B6: A35 (antibody, human IgG1, kappa, L234A L235A, V domains shown)
VH: B2 VH with E62A
VL: B2 VL with G33E, K34N, A59F
B7: A24 (antibody, human IgG1, kappa, L234A L235A)
light: B1 light
heavy: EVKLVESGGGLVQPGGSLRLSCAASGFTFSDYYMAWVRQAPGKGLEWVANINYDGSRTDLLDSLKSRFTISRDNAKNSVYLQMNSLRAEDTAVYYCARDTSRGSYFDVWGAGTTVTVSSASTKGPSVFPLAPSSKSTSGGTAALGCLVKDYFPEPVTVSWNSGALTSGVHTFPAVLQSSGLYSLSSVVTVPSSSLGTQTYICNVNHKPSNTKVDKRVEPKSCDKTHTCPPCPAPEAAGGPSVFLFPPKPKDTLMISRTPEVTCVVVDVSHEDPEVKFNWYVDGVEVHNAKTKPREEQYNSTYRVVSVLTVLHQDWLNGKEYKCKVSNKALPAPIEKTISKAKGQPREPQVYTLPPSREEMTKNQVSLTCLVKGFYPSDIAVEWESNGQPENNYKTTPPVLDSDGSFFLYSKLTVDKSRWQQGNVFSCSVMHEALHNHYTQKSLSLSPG
B8: A37 (antibody, human IgG1, kappa, L234A L235A, V domains shown)
VH: B2 VH with E54D, E62D
VL: B2 VL with G33E, K34N, A59F
B9: A43 (antibody, human IgG1, kappa, L234A L235A, V domains shown)
VH: B2 VH with E62A
VL: B2 VL with G33E, K34N
B10: A42 (antibody, human IgG1, kappa, L234A L235A, V domains shown)
VH: B2 VH with E54Y
VL: B2 VL with G33E, K34N
B11: A22 (antibody, human IgG1, kappa, L234A L235A, V domains shown)
VH: B2 VH with E62D
VL: B2 VL with A59F
B12: A34 (antibody, human IgG1, kappa, L234A L235A, V domains shown)
VH: B2 VH with E54Y
VL: B2 VL with G33E, K34N, A59F
B13: A44 (antibody, human IgG1, kappa, L234A L235A, V domains shown)
VH: B2 VH with E54Y, E62A
VL: B2 VL with G33E, K34N

Where a chain is given by its changes, count along the chain named.

For the assay, the target named is T1, Full-length human CTGF. In words: SPR, full length CTGF.
As usually defined, the Kd is the constant that tells how readily two partners part at equilibrium. Regarding B1, binding was characterised by a dissociation constant (Kd) of 0.25 nM. In the case of B2, binding was characterised by a dissociation constant (Kd) of 0.15 nM.

Take B3: the binding result was “no binding”. B4 had a Kd of 0.19 nM. Consider B5, for which the affinity, expressed as Kd, was 0.23 nM.

Consider B6, for which the binding result was “no binding”. For B7, the Kd amounted to 0.23 nM. As for B8, the binding result is on record as “no binding”. In turn, B9 had an equilibrium dissociation constant (Kd) of 0.15 nM. B10 returned a Kd of 0.15 nM. For B11, binding was characterised by a dissociation constant (Kd) of 0.21 nM. On to B12, for which the binding result is reported as “no binding”.

B13 had a Kd of 0.16 nM.
